Measurements as given in patent US6875741 (Novo Nordisk, dated 2005).
No end group written: not given here.

B1: H2C (D117) (peptide)
peptide: FHENFYDWFVQRVSKK
notes: Formula 1, Site 1 peptide
B2: RP15 (peptide)
peptide: SQAGSAFYAWFDQVLRTV
notes: Formula 1, Site 1 peptide
B3: 20E2 (D118) (peptide)
peptide: DYKDFYDAIDQLVRGSARAGGTRD
notes: Formula 2, Site 1 peptide
B4: G33 (peptide)
peptide: GIISQSCPESFYDWFAGQVSDPWWCW
notes: Formula 1, Site 1 peptide; also called H2CA-4-G9-IGFR; S326
B5: RP16 (peptide)
peptide: VMDARDDPFYHKLSELVT
B6: RP9 (peptide)
peptide: GSLDESFYDWFERQLG
notes: Formula 1, Site 1 peptide; also called H2C-PD1-IGFR
B7: RP4 (peptide)
peptide: PPWGARFYDAIEQLVFDNL
notes: Formula 2, Site 1 peptide
B8: S376 (peptide)
peptide: XGSLDESFYDWFERQLGKK
modifications: N-terminal Ald, linker 19
notes: N-N dimer
B9: S362 (peptide)
peptide: XGSLDESFYDWFERQLGKK
modifications: not fully specified; N-terminal Lig′, linker 24
notes: N-N dimer
B10: S361 (peptide)
peptide: GSLDESFYDWFERQLGKKX
modifications: not fully specified; C-terminal Lig′, linker 24
notes: C-C dimer
B11: S381 (peptide)
peptide: EEDWLQRNANFYDWFVAELX
modifications: C-terminal Lig′ (printed LiG′), linker 23
notes: C-C dimer
B12: S374 (peptide)
peptide: XGSLDESFYDWFERQLGKK
modifications: not fully specified; N-terminal Ald, linker 17
notes: N-N dimer
B13: S170 (peptide)
peptide: CGFHENFYDWFVRQVSKK
modifications: also: N-N dimer, two chains linked at Cys1
notes: N-N dimer
B14: S300 (peptide)
chain: DWLQRNANFYDWFVAEL
modifications: not fully specified; C-terminal Lig′, linker 14
B15: H2CA-4-H6-IGFR (peptide)
peptide: VGRASGFPENFYDWFGRQLSLQSGEQ
B16: H2CA-4-F5-IGFR (peptide)
peptide: VGYQGQGDENFYDWFIRQVSGRLGVQ
B17: B6Hα-1-A3-IR (peptide)
peptide: SRAKVEAEMPDSGDPFYHKLSELLASG
B18: B6L-4-D7-IR (peptide)
peptide: AETSVQVGWIRLQSVWPGEHWNTVDPFYHKLSELLRGSGA
B19: H2CA-4-G9-IGFR (peptide)
peptide: GIISQSCPESFYDWFAGQVSDPWWCW
B20: H2CA-4-F11-IGFR (peptide)
peptide: SAAQLFFQESFYDWFLRQVAESSQPN
B21: H2CA-4-H8-IGFR (peptide)
peptide: SACQFDCHENFYDWFARQVSGGAAYG
B22: H2CA-4-F6-IGFR (peptide)
peptide: AVRATRFDEAFYDWFVRQISDGQGNK

molecular target: T1, soluble human insulin receptor-immunoglobulin heavy chain chimera (human, UniProt P06213 28-956, limits assumed); test: ratio of IC50 on rhIGF-1R (TR-FRET vs b-20E2) to IC50 on sIR-Fc (FP vs FITC-RP9)
T1 construct: extracellular domain; also called sIR-Fc; slR-Fc; not shown: immunoglobulin heavy chain constant domains

Row | Binding Ratio IGF-1R/IR | Binder
1 | 9 | B1
2 | 25 | B2
3 | 1.9 | B3
4 | 1.3 | B4
5 | 0.15 | B5
6 | 1.4 | B6
7 | 476 | B7

molecular target: T2, human insulin receptor (HIR) (human, UniProt P06213 28-1382, limits assumed); test: 125I-insulin competition, solubilized HIR
T2 construct: solubilized receptor from transfected cells

Row | Kd [nM] | Binder
8 | 160 | B8
9 | 110 | B9
10 | 2200 | B10
11 | 120 | B11
12 | 180 | B12
13 | 700 | B13
14 | 50 | B14

molecular target: T3, soluble human insulin receptor-immunoglobulin heavy chain chimera (human, UniProt P06213 28-956); test: phage ELISA ratios compared
T3 construct: extracellular domain; Heterotetramer; also called IR; sIR-Fc; not shown: immunoglobulin heavy chain constant domains replacing the transmembrane and intr

Row | IR/IGF-1R ratio comparison | Binder
15 | 0.1 | B15
16 | 0.1 | B16
17 | 0.3 | B17
18 | 0.3 | B18
19 | 0.1 | B19
20 | 0.1 | B20
21 | 0.1 | B21
22 | 0.2 | B22

molecular target: T4, Soluble IGF-1R (R&D Systems, Cat. # 391-GR) (UniProt P08069 31-935, limits assumed); test: phage ELISA ratios compared
T4 construct: extracellular domain; bought; also called sIGF-1R

Row | IGF-1R/IR ratio comparison | Binder
23 | 14.6 | B15
24 | 12.3 | B16
25 | 3.3 | B17
26 | 3.4 | B18
27 | 16 | B19
28 | 6.7 | B20
29 | 9.4 | B21
30 | 6.4 | B22
